Results: US12708677B2, “Contrast agents, methods for preparing contrast agents, and methods of imaging” (Georgia State University Research Foundation, Inc., priority 2008, dated 2026)

Assay: Zn^2+ binding affinity, dye competition assay (FluoZin)
Text: FIG. 1.6: Measurement of metal binding constants. Gd^3+ binding affinity (FIG. 1.6a) and Zn^2+ binding affinity (FIG. 1.6b) of CA1.CD2 measured by dye competition assays. CA1.CD2 stock solution was gradually added into the 1:1 dye-metal complex to compete for the dye-bound metal ions. The insets show the titration curve for the dye indicators fluo 5N (FIG. 1.6a) and FluoZin (FIG. 1.6b), respectively. (FIG. 1.6c) La^3+ binding affinity obtained by Aromatic residue sensitized Tb^3+ luminescence energy transfer. The Tb^3+ fluorescence of a protein-Tb^3+ mixture decreases with the addition of La^3+. The La^3+ concentrations are 0, 0.30, 0.76, 5.95, 11.03, and 28.95 μM from top to bottom. The Tb^3+ fluorescence decrease competition was fitted (line) by a normal competition plus a nonspecific quenching effect (inset).
Since metal selectivity for Gd^3+ over other physiological metal ions is for minimizing the toxicity of the agents,^39, 40 we measured metal binding constants using dye-competition assays with various chelate-metal buffer systems (Table 1). Low limit metal binding affinities of the proteins were also estimated based on Tb^3+-sensitized FRET and competition assays. […] This is considered for in vivo applications of the contrast agent as the phosphate concentration in serum is maintained at ~1.3 mM.^6, 9 The stability of a contrast agent in blood circulation is another factor for in vivo applications. We characterized the stability by incubating Gd-CA1.CD2 with 75% human serum at 37° C. for 3 and 6 hours.
Metal binding affinity for Ca^2+ and Zn^2+ were determined using similar competition methods and specific dyes with proper Kd values.

B1: CA1.CD2: designed Gd^3+-binding protein, domain 1 of rat CD2 with ligand residues Glu15, Glu56, Asp58, Asp62, Asp64 (protein)
chain: RDSGTVWGALGHGIELNIPNFQMTDDIDEVRWERGSTLVAEFKRKMKPFLKSGAFEIDANGDLDIKNLTRDDSGTYNVTVYSTNGTRILNKALDLRILE
Metal binding constant (Log Ka) Zn^2+: 6.72
disassociation constant (Kd) for Zn^2+: 190 nM
Log (KGd/KZn) (metal selectivity): 5.34
